Publication PMC11153552, “Clock gene homologs lin-42 and kin-20 regulate circadian rhythms in C. elegans” (Scientific Reports, 2024)

Molecular target: the molecule itself
Assay: crystal structure; hanging-drop vapor diffusion at 22 °C; LIN-42 41-315 at 4 mg/mL; reservoir 150 mM lithium sulfate, 1.5 M sodium potassium tartrate; molecular replacement with mouse PER2 PAS-B (PDB 3GDI)

B1: LIN-42 N-terminus residues 41-315 (domain or fragment, C. elegans)
chain: GAMDPEFNTWSSSSVEFLDDADDNRLLFTCTFTLPHGTVLSSATYADGFHEQYLTIGDNFLARLEPKGQSFILSAAAASVKQRIFARVTMPDGALRACELLCEFETDRAKITVLALRSAFSLQASHVSSNFHVFTFITKHSSTCALTHIDYASIPYLGLLPTDLIGKSLLAFVYSPDVHVVRQAHIDLHNSRGKIVKSIADLRLVAHNGSILRCQTEWSAYVNPWTRKMELVVARHRICSLPIGDSDVISSPPPGIQSNTLPPVMAKTFEDELRTIMNKPVP
notes: remnant left on the N-terminus of LIN-42 after TEV cleavage of the HisGβ1 tag; LIN-42 (PERIOD homolog), C. elegans, residues 41-315; Crystallised construct was 41-315; Density was poor for the putative N-terminal PAS domain (residues 41-146), so only the PAS-B dimer was modelled; also called protease-resistant core of the LIN-42 N-terminus; LIN-42 PAS-B dimer; source: E. coli Rosetta2 (DE3), …
B1: binds.
